1 substance from patent US20070087356A1 can be followed below.

Assay [1] addresses GFP-Tus-His6 fusion protein (green fluorescent protein fused to E. coli Tus E47Q with a C-terminal six-histidine tag) (E. coli) (UniProt P16525). Description: protein microarray, fluorescence scan; fusion protein expressed in situ and captured on the spotted plasmid with mutant Ter site (SEQ ID NO: 12).
The target is the same in assay [2]. Briefly: protein microarray, fluorescence scan; fusion protein expressed in situ and captured on the spotted plasmid with wild-type Ter site.

Turning to “monoclonal antibody to the poly-his tag (Sigma-Aldrich), labeled with Cy3 or Cy5”, in assay [1], the Cy3 Signal Intensity (Background subtracted) (arbitrary units) turned out to be 10900 and the Cy5 Signal Intensity (Background subtracted) (arbitrary units) turned out to be 4740. In assay [2], the Cy3 Signal Intensity (Background subtracted) (arbitrary units) was 20600 and the Cy5 Signal Intensity (Background subtracted) (arbitrary units) was determined as 14000.
